Test: soluble on expression in E. coli; label from the status in PepcDB or PDB records

| Sequence | soluble on expression in E. coli |
| --- | --- |
| MAISQFFEKIDRYYQKNLKEYEFSEEYSDISFNTFLYLRKINSLGNPTMSELAKAMEVSKPSASNMVSKMTEKGLVETGASPKDGRVCLLGLTDKGKKVIEIENGADMKFFEKIREILDEEELEVLERIFEKIAAGLEGEKHDR | not soluble |
| MGSDKIHHHHHHMKDYTYSVTEINEYIKDLIEGDPYLTNVSVYGEISGVRPRKGHIFFSLVEENARLECVIFGGDNMGIRLQEGRMALVEGSVSVYIPHGTYRFICSNVRYLDQAGMYQIKFETTLKKLLEEGLLSRPKKTVPRFPRKIGIITSRDSAALQDVIRTARERKAPIEIYVFHTSVQGDSAREELIKALRKANEYDLDLVMIVRGGGSKEDLWVFNEEDVIREILRLRHPVVTGIGHEIDRVIADFVADVSMHTPTGAAEYVIPDASEIHEDLDSFFEKLITSLSNRFDMEERRLETLYFRLRMIGRRKLELNEFKIERVKELAAKLRKKLMDYFEHNQKKLDSLGRMLESLNPLRPLERGFVLVKKDEKIVKESTDLKRGDVVSLVFKDGTKKAQVIG | not soluble |
| GSPGISGGGGGILMDVNVGLSRLQSQAGAPVGTKGSNTRLAAKQRETLQAYDYLCRVDEAKKWIEECLGTDLGPTSTFEQSLRNGVVLALLVQKFQPDKLIKIFYSNELQFRHSDNINKFLDFIHGIGLPEIFHFELTDIYEGKNLPKVIYCIHALSYFLSMQDLAPPLIKSDENLSFTDEDVSIIVRRLRQSNVILPNFKAL | soluble |
| MTIGTLPFDQETIRQRASEVNEAAWLTEFRLQALAQATELPMPTPDKTKIDKWDFIGKGDAAKQEPVSSLTELPEAVKNLIDENNSVLVQRTGTTAFVSLADEAKEKGVIFTDIVTAATEHAELVQKYLMKDGVKVDEHRLTALHAALINGGAFVYVPKNVVLETPLQAVFLVDGEEANVYNHVLFVADANSTATYVENYVANENAKGIANIVAEVIVEQGAQVKFGAVDLLAKDVTTYVNRRGVVGRDGRIDWALGLMNDGNTISENVTNLMGDGSYADTKTVTIGRGNQTQNFTTKVVHFGKHSEGWILKHGVQKDSATSIFNGIGKIEHGASKSNAQQSSRVLMLDEKARGDANPILLIDEDDVMAGHAASVGRVDPVQLYYLMSRGIPKREAERLVIHGFLAPVVNELPIEGVKAQLVEVIERKVR | not soluble |
| MELLFLGTGAGIPAKARNVTSVALKLLEERRSVWLFDCGEATQHQMLHTTIKPRKIEKIFITHMAGDHVYGLPGLLGSRSFQGGEDELTVYGPKGIKAFIETSLAVTKTHLTYPLAIQEIEEGIVFEDDQFIVTAVSVIHGVEAFGYRVQEKDVPGSLKADVLKEMNIPPGPVYQKIKKGETVTLEDGRIINGNDFLEPPKKGRSVVFSGDTRVSDKLKELARDCDVMVHEATFAKEDRKLAYDYYHSTTEQAAVTAKEARAKQLILTHISARYQGDASLELQKEAVDVFPNSVAAYDFLEVNVPRGKLAAALEHHHHHH | soluble |
| MEIKEITIIGGYDKNGNPEPVREVTIKRGEIVGVVGPTGSGKSNLISDIEQLAQGDTISKRRILVNGEVPPIEMRRDPKKRRIAQLSQNMNFLADMTVEEFILMHAKSRGVYRENIVDEVIELANRLTGEPIKKDYNLTILSGGQSRSLMVADVAVISDSPIVLIDEIENAGIKKHEALELLAGYGKIVLVITHDPVLALMTDRRIVMRNGGMQKIIETTEEEKEISRKINEVDNWLLSLREKIRFGERLTHEDISLMVKG | soluble |
| DFGKAMYIDNPRDHAVKHFSKVYQCQSADDVQAVKKKLYDDKTAIIEKVAEQTKSFDVASTQVSGRSLKGSIDVPTLPALPQPETRQGAPKLSVLISSAQEAMLCEYQDIDVYYQLPMGLSGELSAMIELFQANPMLKPWFPAILIGEDYQAARVFLETIQPELLITNNSGVGMITKELGLGWVAGPQMNTVNSYAFKCLQDEFAASGAFVSNELNMKQMRHIKRPKNMRSFYSIYHPNTLLTSRQCLFQQTEGCRKVKVNKGCLKRCDKRTSIINLKDNPYVVQKQKGSHNSIYSEHNVLNLQVLHDLPQLFTDVLIDLRDIQTETKVSASKPELIDAFLALLEDHSEQAIQTLNAMIQPTANAQYLKGL | not soluble |
| MSNDHLETTGSSDPNTNLLKYLPIVLNPDRTITRPIQIPSTAASPDPTSSSPVLTKDLALNPLHNTFVRLFLPRHALYNSAKLPLVVYFHGGGFILFSAASTIFHDFCCEMAVHAGVVIASVDYRLAPEHRLPAAYDDAMEALQWIKDSRDEWLTNFADFSNCFIMGESAGGNIAYHAGLRAAAVADELLPLKIKGLVLDEPGFGGSKRTGSELRLANDSRLPTFVLDLIWELSLPMGADRDHEYCNPTAESEPLYSFDKIRSLGWRVMVVGCHGDPMIDRQMELAERLEKKGVDVVAQFDVGGYHAVKLEDPEKAKQFFVILKKFVVDSCTTKLKLN | soluble |
| MALAHVSRRVISNQIRCFAAANQETSLVHVEKQFEAIEPEKRDKDAFMAAIATFKEKRGRTHVEFINTALKYVKEYGVHKDIDTYKGLLEVFPKGKMIPQTVFQKVFLHYPQQQNCAVKVLDEMEWHGVQPDKEIHDIVVNAFGEWNFATKKVKRMLYWMPKLKHSNKYLDRRHVEGKSLSPSELAGIALKMMSRDAASSISLLKLSDSSDPQQKWLATSQSPMQQILISELRKGDEVFVDAAKVYLQDRVIPFITLTGNTKLEPLNEFKNEDMDEDYTNWYADWQKQRGEAKRSIHEQDHETIFAMGAMYKDDNATAIRWIDNLQKTNPNMENLRFRVRLEGNPIISRK | not soluble |
| MKKILLSLLALGCFSAANAQTFRFGPTVGGNLNISDETKTKIGFAVGAKAEMNFNNPENGWFMDASVLFNNRNRQSENYFNNETKLTQCWKYSTYSLLVPVNVGYKFRLSDNLNLLAAVGPYADFGLTGTDKVTTTDAKGHSKEEKMSSNVYGDKLFNRVNFGFDAKVGVEIAKHYQLSLSYSRGFTNIFKGGLNTKAQDLQLGFSYMF | not soluble |
| SLSFASSACFNEAGTMFRIEPNLIKAIALVESNLKKDSIGKNRDKKNNIKSFDYGLMQINQMHIPMLKKRGIIKDERDLLDNPCLNIKIGTEILYKHFSRCGMTWQCLGTYNAGFAMDNQKKRLQYAKKIYIVYTRLNELDNRKALA | not soluble |
| MGSDKIHHHHHHMVTFSIRIISSDRIFLVAEVKALERVYVIGHKNPDTDSVCSAIGYAHFKNNVEKGKTFIPARSGDLTNESLFVLKYFGMNPPLHIETLEPTVEDLELKNPIFVTPDTSAYDVAMLMESRGIKNVPVVSKEKMIGVVTESNIARVYVRRLKIEPLVIHPVPFDQLVRILKAEVVCDYMKEKTVSGKVHIAVDALHVLLGKIEIGDVVIVGDNEPAQIALLEKGAKLMIVVNNAPVSNRVLEIAKEKNAAVLRVKFDAFSAAKLINLSLPVTLVMSKKFPTVTKKDTLEEVKEIVFTSKIRAAFVEDEKGRLCGVITRTDLLKDVRKKVILVDHNEITQAPEGVEKAEILEIIDHHRLGGLSTLNPVFFYNEPVGSTSTIVAEFFLKNGVKMEREIAGILLSGIVSDTLFFKLSTTTEKDRKMANFLADVAKLDLEKFAKKLLKEGMKIPEDVDPAELLKRDVKVYEMGEESFAVSQIMTSDFSTLLKEKERFMNTLKTLKGEFGVKHFFVLFTNPVEEASLLMMDGDQKLVEKAFNAEKKDGLFLLKGVMSRKKDFVPKIGEVLRRER | not soluble |
| MNFYSLSVFIALVFSFNAADGHRCHRRGNGGFSKIFDKSTIQKIVPFFLIKIQNQNKNNIF | not soluble |
| MNSNANNTPIAIGISQVFPCSYLDGQQEQLLVIQEETLDPILFERLLAIGFRRSGSAIYKPRCPRCSACQPIRVPIQEFVPSKRQKRTLAHNRDLTWRITTEHTETQYALYEKYIRERHFDGPMYPPSKAQYEQFLFCHWLPPTFIEVYDDNRLVAVAVTDTLPNSFSAIYSYFDPDEERRSLGVLLILLQCRLAKLQGKAFLYLGYQIDANRKMSYKRLYRPYQILTHQGWEYSQVCLEHHHHHH | not soluble |
| MGSDKIHHHHHHVKQQRKEIQVLDRLNQAMEYIERHLDQRIEGAELAQIAATSEYHMRRLFSALAGMPLSEYIRRRRLTVAGAEVLAGDRTLLDIAVRYGYGSAEAFARAFRAMHGVGPGEARRTGAPLRSQPRMSFRLVVEGSTDMRYRIVEKDAFQVVGKKARVPLVYEGPNPAIVEFVRSIDPGTLQRLAELSDQEPRGVVAAVANIAGERVSAPEGTELDYYHGVVTSAPAPEDMAVLPVAAGLWAVFEVEGEAPYAIQYLWRDVFTQWFPANPYQSVPGPELLRTTMSQDGAYVEAELWVPVERVER | not soluble |
| YAGLSRFTLSYHNVEYKLFGYGTILNNTNFPGGSSGSAVFNKEKQLTSIYFGSLINVTTGNNRNVNLGLGQILRTYNTNNSKHS | not soluble |

Source: the DeepSol protein solubility set
